# Assay results taken from IntAct's records for PubMed 7657594.
# B1: Vascular endothelial growth factor receptor 1 (Homo sapiens), P17948 (parent)
# chain: MVSYWDTGVLLCALLSCLLLTGSSSGSKLKDPELSLKGTQHIMQAGQTLHLQCRGEAAHKWSLPEMVSKESERLSITKSACGRNGKQFCSTLTLNTAQANHTGFYSCKYLAVPTSKKKETESAIYIFISDTGRPFVEMYSEIPEIIHMTEGRELVIPCRVTSPNITVTLKKFPLDTLIPDGKRIIWDSRKGFIISNATYKEIGLLTCEATVNGHLYKTNYLTHRQTNTIIDVQISTPRPVKLLRGHTLVLNCTATTPLNTRVQMTWSYPDEKNKRASVRRRIDQSNSHANIFYSVLTIDKMQNKDKGLYTCRVRSGPSFKSVNTSVHIYDKAFITVKHRKQQVLETVAGKRSYRLSMKVKAFPSPEVVWLKDGLPATEKSARYLTRGYSLIIKDVTEEDAGNYTILLSIKQSNVFKNLTATLIVNVKPQIYEKAVSSFPDPALYPLGSRQILTCTAYGIPQPTIKWFWHPCNHNHSEARCDFCSNNEESFILDADSNMGNRIESITQRMAIIEGKNKMASTLVVADSRISGIYICIASNKVGTVGRNISFYITDVPNGFHVNLEKMPTEGEDLKLSCTVNKFLYRDVTWILLRTVNNRTMHYSISKQKMAITKEHSITLNLTIMNVSLQDSGTYACRARNVYTGEEILQKKEITIRDQEAPYLLRNLSDHTVAISSSTTLDCHANGVPEPQITWFKNNHKIQQEPGIILGPGSSTLFIERVTEEDEGVYHCKATNQKGSVESSAYLTVQGTSDKSNLELITLTCTCVAATLFWLLLTLFIRKMKRSSSEIKTDYLSIIMDPDEVPLDEQCERLPYDASKWEFARERLKLGKSLGRGAFGKVVQASAFGIKKSPTCRTVAVKMLKEGATASEYKALMTELKILTHIGHHLNVVNLLGACTKQGGPLMVIVEYCKYGNLSNYLKSKRDLFFLNKDAALHMEPKKEKMEPGLEQGKKPRLDSVTSSESFASSGFQEDKSLSDVEEEEDSDGFYKEPITMEDLISYSFQVARGMEFLSSRKCIHRDLAARNILLSENNVVKICDFGLARDIYKNPDYVRKGDTRLPLKWMAPESIFDKIYSTKSDVWSYGVLLWEIFSLGGSPYPGVQMDEDFCSRLREGMRMRAPEYSTPEIYQIMLDCWHRDPKERPRFAELVEKLGDLLQANVQQDGKDYIPINAILTGNSGFTYSTPAFSEDFFKESISAPKFNSGSSDDVRYVNAFKFMSLERIKTFEELLPNATSMFDDYQGDSSTLLASPMLKRFTWTDSKPKASLKIDLRVTSKSKESGLSDVSRPSFCHSSCGHVSEGKRRFTYDHAELERKIACCSPPPDYNSVVLYSTPPI
# Variants of: B1
# Details: with p85a_human PIK3R1, P27986
# Sequence of p85a_human PIK3R1, P27986 (P27986 whole entry): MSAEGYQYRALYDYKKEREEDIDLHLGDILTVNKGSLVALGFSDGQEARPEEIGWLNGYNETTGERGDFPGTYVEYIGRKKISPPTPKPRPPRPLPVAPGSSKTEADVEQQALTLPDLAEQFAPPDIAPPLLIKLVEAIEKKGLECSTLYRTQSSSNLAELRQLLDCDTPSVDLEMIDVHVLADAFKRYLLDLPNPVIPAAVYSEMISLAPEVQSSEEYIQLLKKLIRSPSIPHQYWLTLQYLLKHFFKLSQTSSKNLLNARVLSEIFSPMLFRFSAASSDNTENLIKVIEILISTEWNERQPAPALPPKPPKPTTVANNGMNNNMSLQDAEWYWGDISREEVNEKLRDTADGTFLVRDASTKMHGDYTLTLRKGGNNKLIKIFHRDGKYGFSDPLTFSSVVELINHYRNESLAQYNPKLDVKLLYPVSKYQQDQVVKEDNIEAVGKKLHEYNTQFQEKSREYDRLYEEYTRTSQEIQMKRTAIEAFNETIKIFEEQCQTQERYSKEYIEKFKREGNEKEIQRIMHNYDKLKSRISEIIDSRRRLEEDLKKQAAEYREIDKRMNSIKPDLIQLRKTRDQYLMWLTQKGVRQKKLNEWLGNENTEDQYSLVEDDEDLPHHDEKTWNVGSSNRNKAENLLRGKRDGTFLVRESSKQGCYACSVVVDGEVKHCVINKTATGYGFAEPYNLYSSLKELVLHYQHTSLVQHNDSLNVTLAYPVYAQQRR
row,Variant,effect of a mutation on the interaction
1,Y1213F,disrupting interaction
2,Y1130F,with no effect

# Variants of: B1
# Details: with p85a_human PIK3R1, P27986
# Remark: another data set of the same source
row,Variant,effect of a mutation on the interaction
1,Y1130F,decreasing interaction
2,Y1309F,with no effect
3,Y1327F,with no effect
4,Y1124F;Y1184F;Y1333F,with no effect
5,K861A,disrupting interaction
